Common to all, as to assay: SPR; BIAcore T100; EzrA or GpsB covalently coupled through amino groups to a CM5 chip; analytes 0.002-1 µM at 30 µL/min in 10 mM HEPES pH 7.4, 150 mM NaCl, 0.005% surfactant; apparent KD from the equilibrium signal (Req); triplicate
Experiment [1] concerns the target EzrA without its N-terminal transmembrane domain (Streptococcus pneumoniae (strain R800)).
The target in another experiment is T1, DivIVA (Streptococcus pneumoniae (strain R800), UniProt Q8CWP9 1-262).
T1 construct: DivIVA of Streptococcus pneumoniae, PCR from chromosomal DNA of strain R800, cloned in pETPhos; also called Spn-DivIVA; DivVA; source: E. coli BL21(DE3), purified (Ni-NTA agarose)
T1 sequence (looked up): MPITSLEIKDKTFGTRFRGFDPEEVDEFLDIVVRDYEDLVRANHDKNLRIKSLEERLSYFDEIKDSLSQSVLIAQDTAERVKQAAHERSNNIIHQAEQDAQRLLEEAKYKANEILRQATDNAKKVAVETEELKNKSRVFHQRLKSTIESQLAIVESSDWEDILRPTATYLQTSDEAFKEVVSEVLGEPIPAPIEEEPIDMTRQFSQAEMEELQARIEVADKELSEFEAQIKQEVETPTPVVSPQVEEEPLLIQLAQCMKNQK
To be noted: both partners purified.

For experiment [2], the target named is T2, inactive cytoplasmic domain of StkP-K42R (Streptococcus pneumoniae (strain R800), UniProt Q8DNS0 1-342, K42R).
T2 construct: also called StkP-K42R cytoplasmic domain; source: E. coli BL21(DE3), purified (Ni-NTA agarose)
T2 sequence: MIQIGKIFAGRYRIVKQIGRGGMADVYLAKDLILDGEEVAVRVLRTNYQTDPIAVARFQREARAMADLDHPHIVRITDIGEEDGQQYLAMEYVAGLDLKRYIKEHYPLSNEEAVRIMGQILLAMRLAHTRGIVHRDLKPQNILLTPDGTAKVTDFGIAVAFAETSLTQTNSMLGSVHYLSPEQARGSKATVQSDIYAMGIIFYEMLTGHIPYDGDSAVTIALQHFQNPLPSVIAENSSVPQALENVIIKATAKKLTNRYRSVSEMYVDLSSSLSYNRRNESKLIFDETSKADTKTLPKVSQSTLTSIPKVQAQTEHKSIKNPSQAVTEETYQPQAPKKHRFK
The settings on record: both partners purified.

Chain of EzrA without its N-terminal transmembrane domain (Streptococcus pneumoniae (strain R800)) (B1IAY5 28-575 limits assumed): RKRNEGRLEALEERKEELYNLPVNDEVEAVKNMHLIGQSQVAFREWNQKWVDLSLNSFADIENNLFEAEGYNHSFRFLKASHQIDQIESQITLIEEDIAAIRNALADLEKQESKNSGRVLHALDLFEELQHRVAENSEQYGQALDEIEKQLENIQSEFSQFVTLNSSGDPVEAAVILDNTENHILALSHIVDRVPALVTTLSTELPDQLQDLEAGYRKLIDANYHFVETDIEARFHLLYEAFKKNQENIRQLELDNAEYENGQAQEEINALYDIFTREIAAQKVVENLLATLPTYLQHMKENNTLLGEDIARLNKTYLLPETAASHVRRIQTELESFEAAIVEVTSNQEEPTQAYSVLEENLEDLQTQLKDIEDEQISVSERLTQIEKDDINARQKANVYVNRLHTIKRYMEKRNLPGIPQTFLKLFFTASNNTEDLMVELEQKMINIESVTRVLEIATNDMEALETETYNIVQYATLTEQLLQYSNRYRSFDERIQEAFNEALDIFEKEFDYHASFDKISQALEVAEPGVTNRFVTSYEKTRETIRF

For the molecule “FtsZ (from UniProt A0A0H2ZNE0 1-419) (natural protein)”, the Kd in experiment [1] amounted to 295 nM.

As for “GpsB (from UniProt C1CIN3 1-109) (natural protein)”, the Kd in experiment [1] stood at 770 nM.

B1: GpsB (natural protein, Streptococcus pneumoniae (strain R800), UniProt C1CIN3 1-109, looked up)
chain: MASIIFSAKDIFEQEFGREVRGYNKVEVDEFLDDVIKDYETYAALVKSLRQEIADLKEELTRKPKPSPVQAEPLEAAITSSMTNFDILKRLNRLEKEVFGKQILDNSDF
notes: GpsB of Streptococcus pneumoniae, PCR from chromosomal DNA of strain R800, cloned in pETPhos; In the SPR either coupled to the chip by its amino groups or injected as analyte; also called Spn-GpsB; source: E. coli BL21(DE3), purified (Ni-NTA agarose)
For the molecule B1, the Kd with DivIVA was found to be 85 ± 14 nM; in experiment [2] it was 500 ± 60 nM.

B2: DivIVA (natural protein)
chain: T1 sequence (looked up)
Take B2: the Kd in experiment [1] came out at 530 nM.

The values are drawn from PMC3983041, “Interplay of the Serine/Threonine-Kinase StkP and the Paralogs DivIVA and GpsB in Pneumococcal Cell Elongation and Division” (PLoS Genetics, 2014).
